# Results as given in the RNAGym collection of RNA variant scans (doi:10.1021/acssynbio.7b00057).
# B1: Pistol ribozyme (parent)
# chain: GGGUCGUUGUUCCAUAAUCGCGUGGAUAUGGCACGCAAGUUUCUACCGGGCACCGUAAAUGUCCGACUGGAGCCGUUCGGGCGGCUAUAAACAGACCUCAGGCCCGAAGCGUGGCGGCACCUGCCGCCGGUGGUAAAAAAGAUCGGAAGAGCACACGUCU
# Variants of: B1
# Experiment: aptazyme ON/OFF ratio, guanine; higher = stronger switching; co-transcriptional cleavage with and without guanine
row,Variant,aptazyme ON/OFF ratio
1,U7A G9U U10G U11A C12U C13A,1.16
2,U7A G9U U10G U11A C12U C13G,1.16
3,U7A G9U U10G U11A C12U C13U,1.26
4,U7A G9U U10C U11A C12G,1.23
5,U7A G9U U10C U11A C12U,1.23
6,U7A G9U U10C U11A C12A,1.15
7,U7A G9C U11A C12G C13U,1.08
8,U7A G9C U11A C12G C13A,1.04
9,U7A G9C U11A C12G C13G,1.08
10,U7A G9U U10C C13G,1.02
11,U7A G9U U10C C13U,1.18
12,U7A G9U U10C C13A,1.09
13,U7A G9U U10G U11A C12U,1.06
14,U7A G9U U10G U11A C12G,1.33
15,U7A G9U U10G U11A C12A,1.2
16,U7A G9U U10A C12G,1.28
17,U7A G9U U10A C12A,1.47
18,U7A G9U U10A C12U,1.22
19,U7A G9C U10C U11C C12A C13U,1.02
20,U7A G9C U10C U11C C12A C13A,1.02
21,U7A G9C U10C U11C C12A C13G,1.03
22,U7A G9U U10G U11A C12A C13A,1.14
23,U7A G9U U10G U11A C12A C13U,1.18
24,U7A G9U U10G U11A C12A C13G,1.17

row,Variant,aptazyme ON/OFF ratio
1,U7A G9C U10G U11C C12G C13G,1.21
2,U7A G9C U10G U11C C12G C13U,1.17
3,U7A G9C U10G U11C C12G C13A,1.11
4,U7A G9U U10G U11A C12G C13G,1.21
5,U7A G9U U10G U11A C12G C13A,1.41
6,U7A G9U U10G U11A C12G C13U,1.31
7,U7A G9C U11C C12G C13A,1.07
8,U7A G9C U11C C12G C13G,1.09
9,U7A G9C U11C C12G C13U,1.09
10,U7A G9U U10C C12G C13A,1.07
11,U7A G9U U10C C12G C13G,1.29
12,U7A G9U U10C C12G C13U,1.4
13,U7A G9C U11G C12G C13A,1.16
14,U7A G9C U11G C12G C13U,1.12
15,U7A G9C U11G C12G C13G,1.14
16,U7A G9U U10C U11C C12U C13U,1.07
17,U7A G9U U10C U11C C12U C13G,1.02
18,U7A G9U U10C U11C C12U C13A,1.06
19,U7A G9U U10A U11A C12G C13A,1.11
20,U7A G9U U10A U11A C12G C13U,1.19
21,U7A G9U U10A U11A C12G C13G,1.25
22,U7A G9C U11A C12U C13U,1.16
23,U7A G9C U11A C12U C13G,1.07
24,U7A G9C U11A C12U C13A,1.1

row,Variant,aptazyme ON/OFF ratio
1,U7A G9U C12U C13U,1.21
2,U7A G9U C12U C13A,1.19
3,U7A G9U C12U C13G,1.16
4,U7A G9U C12U,1.34
5,U7A G9U C12G,1.39
6,U7A G9U C12A,0.896
7,U7A G9U U10G C12G C13A,1.18
8,U7A G9U U10G C12G C13U,1.25
9,U7A G9U U10G C12G C13G,1.25
10,U7A G9U U10C U11A,1.31
11,U7A G9U U10C U11G,1.32
12,U7A G9U U10C U11C,1.07
13,U7A G9C U11G,1.41
14,U7A G9C U11C,1.07
15,U7A G9C U11A,1.11
16,U7A G9C U11G C12U C13U,1.32
17,U7A G9C U11G C12U C13A,1.42
18,U7A G9C U11G C12U C13G,1.36
19,U7A G9U U10C C12A C13U,1.16
20,U7A G9U U10C C12A C13A,1.21
21,U7A G9U U10C C12A C13G,1.14
22,U7A G9U U10A U11G C13U,1.21
23,U7A G9U U10A U11G C13G,1.07
24,U7A G9U U10A U11G C13A,1.11

row,Variant,aptazyme ON/OFF ratio
1,U7A G9U U10A U11G C12A C13U,1.1
2,U7A G9U U10A U11G C12A C13G,1.19
3,U7A G9U U10A U11G C12A C13A,1.08
4,U7A G9U U10C U11C C12G C13A,1.02
5,U7A G9U U10C U11C C12G C13G,1.04
6,U7A G9U U10C U11C C12G C13U,1.01
7,U7A G9U U10A U11C C12U,1.08
8,U7A G9U U10A U11C C12G,1.25
9,U7A G9U U10A U11C C12A,1.26
10,U7A G9U U10A C12U C13U,1.17
11,U7A G9U U10A C12U C13A,1.29
12,U7A G9U U10A C12U C13G,1.13
13,U7A G9U U10A U11A C12A C13U,1.3
14,U7A G9U U10A U11A C12A C13G,1.14
15,U7A G9U U10A U11A C12A C13A,1.1
16,U7A G9C U10G U11C C13U,1.03
17,U7A G9C U10G U11C C13G,1.05
18,U7A G9C U10G U11C C13A,1.06
19,U7A G9U U10A U11G C12G C13U,1.18
20,U7A G9U U10A U11G C12G C13G,1.2
21,U7A G9U U10A U11G C12G C13A,1.16
22,U7A G9U U10C U11A C12G C13U,1.12
23,U7A G9U U10C U11A C12G C13G,1.14
24,U7A G9U U10C U11A C12G C13A,1.13

row,Variant,aptazyme ON/OFF ratio
1,U7A G9C U10C U11A C12U C13G,1.08
2,U7A G9C U10C U11A C12U C13A,1.04
3,U7A G9C U10C U11A C12U C13U,1.06
4,U7A G9U C12A C13G,1.21
5,U7A G9U C12A C13A,1.27
6,U7A G9U C12A C13U,1.28
7,U7A G9C U10G U11G C13U,1.1
8,U7A G9C U10G U11G C13A,1.13
9,U7A G9C U10G U11G C13G,1.17
10,U7A G9U U10A C12A C13G,1.07
11,U7A G9U U10A C12A C13U,1.19
12,U7A G9U U10A C12A C13A,1.1
13,U7A G9C U10C U11A C13A,1.07
14,U7A G9C U10C U11A C13G,1.12
15,U7A G9C U10C U11A C13U,1.09
16,U7A G9C U10G U11G C12U,1.14
17,U7A G9C U10G U11G C12A,1.11
18,U7A G9C U10G U11G C12G,1.16
19,U7A G9U U10C C12A,1.14
20,U7A G9U U10C C12G,1.29
21,U7A G9U U10C C12U,1.22
22,U7A G9U U10A C13G,1.05
23,U7A G9U U10A C13U,1.35
24,U7A G9U U10A C13A,1.08

row,Variant,aptazyme ON/OFF ratio
1,U7A G9U U10G C13G,1.14
2,U7A G9U U10G C13U,1.54
3,U7A G9U U10G C13A,1.33
4,U7A G9C U10C U11G,1.02
5,U7A G9C U10C U11C,0.989
6,U7A G9U U10C U11A C12U C13G,1.2
7,U7A G9U U10C U11A C12U C13U,1.22
8,U7A G9U U10C U11A C12U C13A,1.23
9,U7A G9C U10C U11G C12U,1.06
10,U7A G9C U10C U11G C12G,1.1
11,U7A G9C U10C U11G C12A,1.04
12,U7A G9U C13G,1.05
13,U7A G9U C13U,1.35
14,U7A G9U C13A,1.29
15,U7A G9C U10G C12U,1.2
16,U7A G9C U10G C12A,1.09
17,U7A G9C U10G C12G,1.11
18,U7A G9C U10G,1.32
19,U7A G9U,1.86
20,U7A G9C U10C U11G C12A C13U,1.02
21,U7A G9C U10C U11G C12A C13A,1.04
22,U7A G9C U10C U11G C12A C13G,1.05
23,U7A G9C U11A C12A C13G,1.05
24,U7A G9C U11A C12A C13U,1.11

row,Variant,aptazyme ON/OFF ratio
1,U7A G9C U11A C12A C13A,1.03
2,U7A G9C U10G U11A C12A C13U,1.07
3,U7A G9C U10G U11A C12A C13A,1.07
4,U7A G9C U10G U11A C12A C13G,1.08
5,U7A G9U U10G C12U C13A,1.32
6,U7A G9U U10G C12U C13G,1.23
7,U7A G9U U10G C12U C13U,1.87
8,U7A G9U U10A U11A C13G,1.1
9,U7A G9U U10A U11A C13U,1.16
10,U7A G9U U10A U11A C13A,1.17
11,U7A G9C U10G U11A C12G C13A,1.07
12,U7A G9C U10G U11A C12G C13U,1.06
13,U7A G9C U10G U11A C12G C13G,1.21
14,U7A G9C U10G U11G,1.06
15,U7A G9C U10G U11C,1.03
16,U7A G9C U10G U11A,1.03
17,U7A G9C U11A C13A,1.02
18,U7A G9C U11A C13U,1.07
19,U7A G9C U11A C13G,1.08
20,U7A G9U U10A U11C C12G C13G,1.06
21,U7A G9U U10A U11C C12G C13A,1.09
22,U7A G9U U10A U11C C12G C13U,1.13
23,U7A G9C U10C U11A C12G C13U,1.25
